Columns and labels:
[1] = substrate: COC(=O)C1CN=CNC1; conditions: Mus musculus; A9L
[2] = substrate: C[N+](C)(C)CCOC(N)=O; conditions: Mus musculus; A9L

B1: Muscarinic acetylcholine receptor M2 (Mus musculus), Q9ERZ4 (protein)
chain: MNNSTNSSNNGLAITSPYKTFEVVFIVLVAGSLSLVTIIGNILVMVSIKVNRHLQTVNNYFLFSLACADLIIGVFSMNLYTLYTVIGYWPLGPVVCDLWLALDYVVSNASVMNLLIISFDRYFCVTKPLTYPVKRTTKMAGMMIAAAWVLSFILWAPAILFWQFIVGVRTVEDGECYIQFFSNAAVTFGTAIAAFYLPVIIMTVLYWHISRASKSRIKKEKKEPVANQDPVSPSLVQGRIVKPNNNNMPGGDGGLEHNKIQNGKAPRDGGTENCVQGEEKESSNDSTSVSAVASNMRDDEITQDENTVSTSLGHSKDDNSRQTCIKIVTKTQKGDACTPTSTTVELVGSSGQNGDEKQNIVARKIVKMTKQPAKKKPPPSREKKVTRTILAILLAFIITWAPYNVMVLINTFCAPCIPNTVWTIGYWLCYINSTINPACYALCNATFKKTFKHLLMCHYKNIGATR
Km [1]: 0.014 µM | Km [2]: 0.046 µM
